Experimental data from patent publication US20150322156A1 (TOHOKU UNIVERSITY, published 2015).

Target: human EGF receptor 1 (EGFR) as used in the SPR rate analysis (UniProt P00533 25-645, limits assumed)
Test: SPR rate analysis of scFv

Row | Ka [M⁻¹] | koff [s⁻¹] | kon [M⁻¹ s⁻¹] | Binder
1 | 2.61e+07 | 0.00542 | 141000 | h528scFv, single-chain antibody of the humanized anti-human EGF receptor 1 (Her1) antibody 528 before lysine substitution (scFv, also called PC) scFv: QVQLVQSGAEVKKPGASVKVSCKASGYTFTSYWMHWVRQAPGQGLEWMGNIYPGSGGTNYAEKFKNRVTMTRDTSISTAYMELSRLRSDDTAVYYCARSGGPYFFDYWGQGTLVTVSSAGGGGSDIVMTQSPLSLPVTPGEPASISCRSSQNIVHNNGITYLEWYLQKPGQSPQLLIYKVSDRFSGVPDRFSGSGSGTDFTLKISRVEAEDVGVYYCFQGSHIPPTFGQGTKVEIKRAAAAEQKLISEEDLNLGGGMRGSHHHHHH
2 | 7.32e+06 | 0.00824 | 60300 | lysine-substituted single-chain antibody "OK" containing VH0K and VL0K (all lysine residues replaced) (scFv, Expressed in E. coli; also called VH0K VL0K) scFv: QVQLVQSGAEVAEPGASVQVSCAASGYTFTSYWMHWVRQAPGQGLEWMGNIYPGSGGTNYAEEFQNRVTMTRDTSISTAYMELSRLRSDDTAVYYCARSGGPYFFDYWGQGTLVTVSSGGGGSGGGGSGGGGSDIVMTQSPLSLPVTPGEPASISCRSSQNIVHNNGITYLEWYLQRPGQSPQLLIYQVSDRFSGVPDRFSGSGSGTDFTLTISRVEAEDVGVYYCFQGSHIPPTFGQGTEVEIERHHHHHH
3 | 8.82e+06 | 0.00805 | 71000 | lysine-substituted single-chain antibody "HK" containing VH1K and VL0K (H19 re-replaced with lysine) (scFv, Expressed in E. coli; also called VH1K VL0K) scFv: QVQLVQSGAEVAEPGASVKVSCAASGYTFTSYWMHWVRQAPGQGLEWMGNIYPGSGGTNYAEEFQNRVTMTRDTSISTAYMELSRLRSDDTAVYYCARSGGPYFFDYWGQGTLVTVSSGGGGSGGGGSGGGGSDIVMTQSPLSLPVTPGEPASISCRSSQNIVHNNGITYLEWYLQRPGQSPQLLIYQVSDRFSGVPDRFSGSGSGTDFTLTISRVEAEDVGVYYCFQGSHIPPTFGQGTEVEIERHHHHHH
4 | 8.34e+06 | 0.00853 | 71100 | lysine-substituted single-chain antibody "LK" containing VH0K and VL1K (L108 re-replaced with lysine) (scFv, Expressed in E. coli; also called VH0K VL1K) scFv: QVQLVQSGAEVAEPGASVQVSCAASGYTFTSYWMHWVRQAPGQGLEWMGNIYPGSGGTNYAEEFQNRVTMTRDTSISTAYMELSRLRSDDTAVYYCARSGGPYFFDYWGQGTLVTVSSGGGGSGGGGSGGGGSDIVMTQSPLSLPVTPGEPASISCRSSQNIVHNNGITYLEWYLQRPGQSPQLLIYQVSDRFSGVPDRFSGSGSGTDFTLTISRVEAEDVGVYYCFQGSHIPPTFGQGTKVEIERHHHHHH
